Data as given in patent publication US20050266469.

Biological target: T1, peptide derived from the known CHK1 kinase substrate CDC25C (GLYRSPSMPENLNR)
T1 chain: GLYRSPSMPENLNR

B1: CHK1sv1-His-tagged protein (protein)
chain: MAVPFVEDWDLVQTLGEGAYGEVQLAVNRVTEEAVAVKIVDMKRAVDCPENIKKEICINKMLNHENVVKFYGHRREGNIQYLFLEYCSGGELFDRIEPDIGMPEPDAQRFFHQLMAGVVYLHGIGITHRDIKPENLLLDERDNLKISDFGLATVFRYNNRERLLNKMCGTLPYVAPELLKRREFHAEPVDVWSCGIVLTAMLAGELPWDQPSDSCQEYSDWKEKKTYLNPWKKIDSAPLALLHKILVENPSARITIPDIKKDRWYNKPLKKGAKRPRVTSGGVSESPSGFSKHIQSNLDFSPVNSASRTPGSGWSKEHHHHHH
Which “Km (CDC25C substrate)” value does the source give for B1 here?
Its value is 120 µM.

What about the Vmax of the same protein?
The Vmax was 36 nmol/min/µg.
